In article PMC11289442 (Nature Communications, 2024):

Legend:
Test in all cases: SDS-PAGE without heat denaturation and immunoblot
[1] = molecular target: CFP-OsUVR8a (in transgenic Arabidopsis uvr8-6) (rice (Oryza sativa))
[2] = molecular target: CFP-OsUVR8b (in transgenic Arabidopsis uvr8-6) (rice (Oryza sativa))
[3] = molecular target: the molecule itself

| Molecule | stoichiometry N [3] | other results |
| --- | --- | --- |
| CFP-OsUVR8a (in transgenic Arabidopsis uvr8-6) (natural protein) |  | stoichiometry N [1]: 2 |
| CFP-OsUVR8b (in transgenic Arabidopsis uvr8-6) (natural protein) |  | stoichiometry N [2]: 2 |
| CFP-OsUVR8b (in transgenic rice) (natural protein) MDAVMSAADDAGAASGREDPPPAVVLVSAGASHSVALLAGNVLCSWGRGEDGQLGHGDAEDRLVPTVLSGFDAAAPGITSVICGADHTTAYSEDEQQVYSWGWGDFGRLGHGNSSDVFTPQPVKALQGIKIKQIACGDSHCLAVTMAGEVQSWGRNQNGQLGLGTTEDSLLPQKIQSFEGVCVKMIAAGAEHTAAVTEDGDLYGWGWGRYGNLGLGDRNDRLVPEKVSSVEGEKMVLIACGWRHTITVSSSGSLYTYGWSKYGQLGHGDFEDHLVPHKLEALKDSSISQISGGWRHTMALTSDGKLYGWGWNKFGQVGVGDTDDHCFPVQVKFPEDQKVAQVACGWRHTLAFTEKKNVFSWGRGTSGQLGHGEIVDRNKPVMIDALSPDGPGCKKLEPSTAVPFAAKVWVSPSERYAIVPDEKVPNSGEGTARGNGADANVPENDVKRMRVHS | 2 |  |
| CFP-OsUVR8a (in transgenic rice) (natural protein) MHSTGMEMEVEVAGDDEAVPEAPERSVVLISAGASHSVALLSGGVVCSWGRGEDGQLGHGDAEDRPVPTVLTAAFDDAPGGVASVVICGADHTTAYSDEELQLYSWGWGDFGRLGHGNSSDVFNPQPIQALQGVRITQIACGDSHCLAVTVAGHVHSWGRNQNGQLGLGNTEDSLLPQKIQAFEGVRVKMIAAGAEHTAAVTEDGDLYGWGWGRYGNLGLGDRDDRLIPEKVSSVNGQKMVLVACGWRHTITVSSSGSIYTYGWSKYGQLGHGDFEDHLVPHKLEALKDTTISQISGGWRHTMALAADGKLYGWGWNKFGQVGVGDNEDHCSPVQVNFPNEQKVVQVACGWRHTLALTEAKNVFSWGRGTSGQLGHGEIVDRNIPKMIDALSSDGSACKQLESSKAVPMSAKVWVSPSERYAIVPDEKAGKGIPAGNGTETHVPQGDVKRMRV | 2 |  |
